{"source": "patent US20250197485A1", "about": "“Anti-ED-A Antibodies for the Treatment of Pulmonary Hypertension” (Universitätsklinikum Jena, priority 2022, published 2025)", "molecules": {"B1": {"name": "F8 IgG: Chimaeric anti-ED-A antibody: human F8 VH/VL fused to murine IgG2a constant regions; heavy chain SEQ ID NO: 11, light chain SEQ ID NO: 12 (antibody)", "heavy": "EVQLLESGGGLVQPGGSLRLSCAASGFTFSLFTMSWVRQAPGKGLEWVSAISGSGGSTYYADSVKGRFTISRDNSKNTLYLQMNSLRAEDTAVYYCAKSTHLYLFDYWGQGTLVTVSSAKTTAPSVYPLAPVCGDTTGSSVTLGCLVKGYFPEPVTLTWNSGSLSSGVHTFPAVLQSDLYTLSSSVTVTSSTWPSQSITCNVAHPASSTKVDKKIEPRGPTIKPCPPCKCPAPNLLGGPSVFIFPPKIKDVLMISLSPIVTCVVVDVSEDDPDVQISWFVNNVEVHTAQTQTHREDYNSTLRVVSALPIQHQDWMSGKEFKCKVNNKDLPAPIERTISKPKGSVRAPQVYVLPPPEEEMTKKQVTLTCMVTDFMPEDIYVEWTNNGKTELNYKNTEPVLDSDGSYFMYSKLRVEKKNWVERNSYSCSVVHEGLHNHHTTKSFSRTPGK", "light": "EIVLTQSPGTLSLSPGERATLSCRASQSVSMPFLAWYQQKPGQAPRLLIYGASSRATGIPDRFSGSGSGTDFTLTISRLEPEDFAVYYCQQMRGRPPTFGQGTKVEIKRTDAAPTVSIFPPSSEQLTSGGASVVCFLNNFYPKDINVKWKIDGSERQNGVLNSWTDQDSKDSTYSMSSTLTLTKDEYERHNSYTCEATHKTSTSPIVKSFNRNEC"}}, "key": {"MCT-induced PH [1]": {"tested_on": "MCT-induced PH", "assay": "Right heart catheterization (RVPsys) in mouse model of MCT-induced PH", "assay_type": "in vivo, C57BL/6 mice", "description": "PH was induced in C57BL/6 mice (bodyweight: 25-30 g). The animals were obtained from ZET facility (Zentale Experimentelle Tierhaltung) of the University Hospital Jena (UKJ, Jena, Germany). Prior to PH induction, mice were allowed to acclimatize for at least 7 days with ad libitum access to food and water as well as controlled light/dark cycles. 41 animals were investigated divided into the following five experimental groups: • 1) sham induced controls (n=7) • 2) MCT induced PH (n=12) • 3) MCT induced PH+MAC (n=6) • 4) MCT induced PH+F8 IgG (n=8) • 5) MCT induced PH+KSF IgG (n=8)\nFor PH induction, the Monocrotaline (MCT, Carl Roth, Germany) method was used.\nThe sham induced controls were injected with 30 μl NaCl not containing MCT at day 1 (single dose; intraperitoneally, i.p.). […] The other 4 experimental groups were injected with MCT to induce PH (single dose; intraperitoneally, i.p.; 60 mg/kg body weight; volume 30 μl). Animals in the MCT induced PH+MAC group received the drug (Macitentan, Actelion Pharmaceuticals Ltd.) from day 14 to day 28 (once daily; per os; 15 mg/kg body weight). Animals in the MCT induced PH+F8 IgG group received F8 IgG 3 times on day 14, 16 and 18 (intravenously, i.v.; 195 μg/injection; volume 200 μl). Similarly, animals in the MCT induced PH+KSF IgG group received KSF IgG 3 times on day 14, 16 and 18 (intravenously, i.v.; 195 μg/injection; volume 120 μl).\nOn day 28 after MCT injection, mice of all experimental groups were deeply anesthetized with a single dose of 100 mg/kg body weight ketamine and 10 mg/kg body weight Xylazin in approximately 60 μl each administered i.p.\nRight heart catheterization using a 1.4 F micro conductance pressure-volume catheter (Model SPR-839; Millar Instruments Inc; PowerLab system, ADInstruments Ltd., Oxford, UK) was performed via the right vena jugularis interna to measure the systolic right ventricular pressure and thereby verify the success of the experimental setting. Mice were then sacrificed in deep anesthesia and analgesia to carry out cardiac blood collection after thoracotomy and to harvest the organs.\nStatistical analyses were performed using IBM SPSS statistical software, version 28.0 (IBM SPSS Statistics for Windows. Armonk, NY, USA). Data are expressed as mean±standard deviation. Kruskal-Wallis and Mann-Whitney-U test were used to test for significant differences between the different groups. A p-value<0.05 as statistically significant."}, "MCT-induced PH [2]": {"tested_on": "MCT-induced PH", "assay": "Histological evaluation of lung tissue damage (sum-score) in mouse model of MCT-induced PH", "assay_type": "in vivo, C57BL/6 mice", "description": "PH was induced in C57BL/6 mice (bodyweight: 25-30 g). The animals were obtained from ZET facility (Zentale Experimentelle Tierhaltung) of the University Hospital Jena (UKJ, Jena, Germany). Prior to PH induction, mice were allowed to acclimatize for at least 7 days with ad libitum access to food and water as well as controlled light/dark cycles. 41 animals were investigated divided into the following five experimental groups: • 1) sham induced controls (n=7) • 2) MCT induced PH (n=12) • 3) MCT induced PH+MAC (n=6) • 4) MCT induced PH+F8 IgG (n=8) • 5) MCT induced PH+KSF IgG (n=8) For PH induction, the Monocrotaline (MCT, Carl Roth, Germany) method was used. The sham induced controls were injected with 30 μl NaCl not containing MCT at day 1 (single dose; intraperitoneally, i.p.). […] The other 4 experimental groups were injected with MCT to induce PH (single dose; intraperitoneally, i.p.; 60 mg/kg body weight; volume 30 μl). Animals in the MCT induced PH+MAC group received the drug (Macitentan, Actelion Pharmaceuticals Ltd.) from day 14 to day 28 (once daily; per os; 15 mg/kg body weight). Animals in the MCT induced PH+F8 IgG group received F8 IgG 3 times on day 14, 16 and 18 (intravenously, i.v.; 195 μg/injection; volume 200 μl). Similarly, animals in the MCT induced PH+KSF IgG group received KSF IgG 3 times on day 14, 16 and 18 (intravenously, i.v.; 195 μg/injection; volume 120 μl). Microscopic evaluation to assess histopathological lung tissue damage was performed using H&E as well as Sirius Red stained lung tissue sections according to a defined sum-score (between 0 and 12; maximum score value=highest level of tissue damage) integrating certain histological alterations frequently occurring in PH: percentage of atelectasis area, percentage of emphysema area, degree of media hypertrophy of peribronchial arteries, presence of perivascular cellular edema of peribronchial arteries, and degree of media hypertrophy of small arteries. Statistical analyses were performed using IBM SPSS statistical software, version 28.0 (IBM SPSS Statistics for Windows. Armonk, NY, USA). Data are expressed as mean±standard deviation. Kruskal-Wallis and Mann-Whitney-U test were used to test for significant differences between the different groups. A p-value<0.05 as statistically significant."}, "[3]": {"conditions": "in contrast to treatment with KSF IgG"}}}
{"molecule": "B1", "values": [{"measurement": "attenuation in RVPsys compared to the MCT-induced PH group without treatment (positive control)", "setting": "MCT-induced PH [1]; day 28, F8 IgG 195 μg i.v. day 14, 16, 18 (p=0.010), MAC 15 mg/kg per os once daily day 14-28 (n.s.)", "result": "significant attenuation"}, {"measurement": "RVPsys compared to the group treated with the negative control antibody KSF IgG", "setting": "MCT-induced PH [1]; day 28, p=0.003", "result": "significantly reduced"}, {"measurement": "pressure values in the right ventricle (RVPsys)", "setting": "MCT-induced PH [1]; [3]", "result": "significant reduction"}, {"measurement": "histopathological lung tissue damage (sum-score 0 to 12) compared to the MCT-induced PH group without treatment", "setting": "MCT-induced PH [2]; MAC p=0.020, F8 IgG p=0.005, KSF IgG p=0.907", "result": "significantly reduced"}, {"measurement": "histopathological lung tissue damage (sum-score 0 to 12) compared to negative controls", "setting": "MCT-induced PH [2]; all groups p<0.05, F8 IgG p=0.002", "result": "significantly increased"}, {"measurement": "lung tissue damage at the histopathological level", "setting": "MCT-induced PH [2]; [3]", "result": "attenuation"}]}
